{"source": "patent EP2002021B1", "assay_in_all_cases": "cell-based or functional assay", "key": {"[1]": {"molecular_target": "CCR5-tTA fusion construct containing the low efficiency cleavage site (UniProt P51681)", "sequence (P51681 whole entry, form in doubt, the tested form may be a part)": "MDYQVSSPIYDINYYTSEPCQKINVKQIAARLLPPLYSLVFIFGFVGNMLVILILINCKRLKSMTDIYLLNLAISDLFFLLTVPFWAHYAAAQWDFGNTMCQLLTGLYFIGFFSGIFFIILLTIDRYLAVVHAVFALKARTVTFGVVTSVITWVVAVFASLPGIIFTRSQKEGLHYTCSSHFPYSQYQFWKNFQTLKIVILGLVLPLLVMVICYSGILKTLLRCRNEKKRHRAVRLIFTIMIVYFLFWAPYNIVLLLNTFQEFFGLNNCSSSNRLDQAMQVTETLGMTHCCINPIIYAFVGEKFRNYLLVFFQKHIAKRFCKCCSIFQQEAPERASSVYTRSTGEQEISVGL"}, "[2]": {"molecular_target": "EGFR-TEV-NIa-Pro cleavage (Leu)-tTA (human) (UniProt P00533)"}, "[3]": {"molecular_target": "IGF1R-TEV-NIa-Pro cleavage (Leu)-tTA (human) (UniProt P08069)", "sequence (P08069 whole entry, form in doubt)": "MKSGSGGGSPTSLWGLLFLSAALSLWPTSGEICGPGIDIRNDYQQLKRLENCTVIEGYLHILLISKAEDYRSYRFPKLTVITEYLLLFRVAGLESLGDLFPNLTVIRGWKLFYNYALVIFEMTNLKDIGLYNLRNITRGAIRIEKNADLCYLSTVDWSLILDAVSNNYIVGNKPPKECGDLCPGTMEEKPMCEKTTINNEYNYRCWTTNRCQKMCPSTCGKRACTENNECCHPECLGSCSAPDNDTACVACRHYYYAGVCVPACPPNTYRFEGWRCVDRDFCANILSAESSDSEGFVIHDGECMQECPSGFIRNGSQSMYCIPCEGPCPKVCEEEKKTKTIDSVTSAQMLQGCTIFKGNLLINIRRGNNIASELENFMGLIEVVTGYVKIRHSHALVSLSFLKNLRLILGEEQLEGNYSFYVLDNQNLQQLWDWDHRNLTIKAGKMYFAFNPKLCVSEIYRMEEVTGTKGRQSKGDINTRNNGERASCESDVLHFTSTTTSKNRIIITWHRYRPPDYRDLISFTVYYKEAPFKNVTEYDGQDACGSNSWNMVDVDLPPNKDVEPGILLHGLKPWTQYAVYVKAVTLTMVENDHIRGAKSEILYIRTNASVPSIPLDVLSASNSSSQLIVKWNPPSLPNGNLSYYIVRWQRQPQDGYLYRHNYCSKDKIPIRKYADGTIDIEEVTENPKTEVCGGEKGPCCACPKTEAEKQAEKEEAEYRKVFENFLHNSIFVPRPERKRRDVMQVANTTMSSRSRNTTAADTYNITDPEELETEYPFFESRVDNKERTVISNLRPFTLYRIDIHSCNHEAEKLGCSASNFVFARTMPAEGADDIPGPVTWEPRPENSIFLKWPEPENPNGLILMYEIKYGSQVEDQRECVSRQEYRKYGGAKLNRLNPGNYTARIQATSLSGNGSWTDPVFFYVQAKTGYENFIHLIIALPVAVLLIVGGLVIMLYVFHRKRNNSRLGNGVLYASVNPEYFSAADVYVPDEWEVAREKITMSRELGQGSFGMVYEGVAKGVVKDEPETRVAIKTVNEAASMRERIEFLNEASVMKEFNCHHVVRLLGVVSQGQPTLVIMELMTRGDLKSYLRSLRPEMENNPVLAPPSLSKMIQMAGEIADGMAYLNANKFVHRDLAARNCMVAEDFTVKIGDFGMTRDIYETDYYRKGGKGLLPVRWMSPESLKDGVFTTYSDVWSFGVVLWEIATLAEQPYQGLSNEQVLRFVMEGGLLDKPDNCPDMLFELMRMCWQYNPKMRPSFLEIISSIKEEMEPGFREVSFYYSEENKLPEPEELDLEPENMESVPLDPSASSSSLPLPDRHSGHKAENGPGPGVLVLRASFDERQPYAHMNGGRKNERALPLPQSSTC"}}}
{"substance": "Regulated on Activation, Normal T-Cell Expressed and Secreted (RANTES) (from UniProt P13501 24-91) (ligand)", "values": [{"measurement": "fold induction of reporter gene expression over the background, 1 µg/ml RANTES, clone 34 cells", "setting": "[1]", "result": 40, "unit": "fold"}]}
{"substance": "PLC Gamma1-TEV", "values": [{"measurement": "fold increase of luciferase reporter gene activity, 2.5 ng/ml EGF", "setting": "[2]", "result": 12.3, "unit": "fold"}, {"measurement": "fold increase of luciferase reporter gene activity, 100 ng/ml TGF-alpha", "setting": "[2]", "result": 18.3, "unit": "fold"}]}
{"substance": "human Transforming Growth Factor - Alpha (from UniProt P01135 40-89) (ligand)", "values": [{"measurement": "fold increase of luciferase reporter gene activity, 100 ng/ml TGF-alpha", "setting": "[2]", "result": 18.3, "unit": "fold"}]}
{"substance": "SHC1-TEV (from UniProt P29353 1-238)", "values": [{"measurement": "fold increase of luciferase reporter gene activity, 1 µM IGF-1", "setting": "[3]", "result": 90, "unit": "fold"}]}
